From US20200048328A1 (Bristol-Myers Squibb, published 2020)
Residue numbers refer to the chain shown, from its start. Each block holds one binder with its values, some of them ahead of it.

Experiments:
rat serum albumin = target: T1, rat serum albumin (rat, UniProt P02770 25-608); assay: SPR, albumin immobilized, Adnectin 250 nM
T1 construct: also called Rat SA; RSA

rhesus serum albumin [1] = target: T2, rhesus serum albumin (rhesus, UniProt Q28522 17-600); assay: SPR, albumin immobilized, Adnectin 250 nM
T2 construct: also called RhSA; Rh-SA

mouse serum albumin [2] = target: T3, mouse serum albumin (mouse, UniProt P07724 25-608); assay: SPR, albumin immobilized, Adnectin 250 nM
T3 construct: also called MSA; MuSA

human serum albumin [3] = target: T4, human serum albumin (human, UniProt P02768 25-609); assay: SPR, albumin immobilized, Adnectin 250 nM
T4 construct: immobilized on chips or coated on plates elsewhere; also called HSA; HuSA

rhesus serum albumin [4] = target: T2, rhesus serum albumin; assay: SPR, albumin immobilized, HBSP pH 7.4
mouse serum albumin [5] = target: T3, mouse serum albumin; assay: SPR, albumin immobilized, HBSP pH 7.4
human serum albumin [6] = target: T4, human serum albumin; assay: SPR, albumin immobilized, HBSP pH 7.4
rhesus serum albumin [7] = target: T2, rhesus serum albumin; assay: direct binding ELISA, albumin coated
mouse serum albumin [8] = target: T3, mouse serum albumin; assay: direct binding ELISA, albumin coated
human serum albumin [9] = target: T4, human serum albumin; assay: direct binding ELISA, albumin coated
rhesus serum albumin [10] = target: T2, rhesus serum albumin; assay: SPR, albumin immobilized, acetate pH 7.4
mouse serum albumin [11] = target: T3, mouse serum albumin; assay: SPR, albumin immobilized, acetate pH 7.4
human serum albumin [12] = target: T4, human serum albumin; assay: SPR, albumin immobilized, acetate pH 7.4
human PCSK9 [13] = target: T5, human PCSK9 (human, UniProt Q8NBP7 31-692); assay: PCSK9:EGFA FRET 2, competition
T5 construct: also called hPCSK9; huPCSK9

human PCSK9 [14] = target: T5, human PCSK9; assay: BLI (Octet), biotinylated PCSK9 on tips, tandem in complex with excess HSA
human PCSK9 [15] = target: T5, human PCSK9; assay: PCSK9:LDLR FRET, competition
rhesus serum albumin [16] = target: T2, rhesus serum albumin; assay: SPR, albumin immobilized;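 note: biacore SPR with human, rhesus or mouse serum albumin amine-coupled to the chip (about 1200 RU), 3 min association, 6-10 min dissociation, reference-subtracted traces fitted with a 1:1 model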
mouse serum albumin [17] = target: T3, mouse serum albumin; assay: SPR, albumin immobilized;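 note: biacore SPR with human, rhesus or mouse serum albumin amine-coupled to the chip (about 1200 RU), 3 min association, 6-10 min dissociation, reference-subtracted traces fitted with a 1:1 model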
human serum albumin [18] = target: T4, human serum albumin; assay: SPR, albumin immobilized;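 note: biacore SPR with human, rhesus or mouse serum albumin amine-coupled to the chip (about 1200 RU), 3 min association, 6-10 min dissociation, reference-subtracted traces fitted with a 1:1 model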
human PCSK9 [19] = target: T5, human PCSK9; assay: PCSK9:EGFA FRET 1, competition
human PCSK9 [20] = target: T5, human PCSK9; assay: BLI (Octet), biotinylated PCSK9 on tips, no HSA
rhesus serum albumin [21] = target: T2, rhesus serum albumin; assay: SPR, albumin immobilized, acetate pH 5.5
mouse serum albumin [22] = target: T3, mouse serum albumin; assay: SPR, albumin immobilized, acetate pH 5.5
human serum albumin [23] = target: T4, human serum albumin; assay: SPR, albumin immobilized, acetate pH 5.5
rhesus serum albumin [24] = target: T2, rhesus serum albumin; assay: SPR, albumin immobilized, acetate pH 5.5; remark: listed apart in the source
mouse serum albumin [25] = target: T3, mouse serum albumin; assay: SPR, albumin immobilized, acetate pH 5.5; remark: listed apart in the source
human serum albumin [26] = target: T4, human serum albumin; assay: SPR, albumin immobilized, acetate pH 5.5; remark: listed apart in the source
rhesus serum albumin [27] = target: T2, rhesus serum albumin; assay: SPR, albumin immobilized, HBSP pH 7.4; remark: listed apart in the source
mouse serum albumin [28] = target: T3, mouse serum albumin; assay: SPR, albumin immobilized, HBSP pH 7.4; remark: listed apart in the source
human serum albumin [29] = target: T4, human serum albumin; assay: SPR, albumin immobilized, HBSP pH 7.4; remark: listed apart in the source
rhesus serum albumin [30] = target: T2, rhesus serum albumin; assay: SPR, albumin immobilized, acetate pH 7.4; remark: listed apart in the source
mouse serum albumin [31] = target: T3, mouse serum albumin; assay: SPR, albumin immobilized, acetate pH 7.4; remark: listed apart in the source
human serum albumin [32] = target: T4, human serum albumin; assay: SPR, albumin immobilized, acetate pH 7.4; remark: listed apart in the source

koff (rat serum albumin): 0.000825 s⁻¹
koff (rhesus serum albumin [1]): 0.000312 s⁻¹
koff (mouse serum albumin [2]): 0.000504 s⁻¹
koff (human serum albumin [3]): 0.000251 s⁻¹
B4: 5963_F03.PS5-2 (designed binder)
chain: MGVSDVPRDLEVVAATPTSLLISWDAPCVTVRYYRITYGREVQKYSDLGPLYIYQEFTVPGSKSTATISGLKPGVDYTITVYAVTGSGESPASSKPISINYRTPHHHHHH

koff (rat serum albumin): 0.000848 s⁻¹
koff (rhesus serum albumin [1]): 0.000313 s⁻¹
koff (mouse serum albumin [2]): 0.000507 s⁻¹
koff (human serum albumin [3]): 0.00025 s⁻¹
B5: 5963_E01.PS5-2 (designed binder)
chain: B4 chain with C28A, T67C

koff (rat serum albumin): 0.000547 s⁻¹
koff (rhesus serum albumin [1]): 0.000172 s⁻¹
koff (mouse serum albumin [2]): 0.000307 s⁻¹
koff (human serum albumin [3]): 0.000148 s⁻¹
B6: 5916_A04.PS5-2 (designed binder)
chain: MGVSDVPRDLEVVAATPTSLLISWDAPAVTVRYYRITYGREVQKYSDLGPLYIYQEFTVPGSKSTATISGLKPGVDYTITVYAVTGSGESPASSKPISINYRTPEDEDGCHHHHHH

Kd (rhesus serum albumin [24]): 91.1 nM
koff (rhesus serum albumin [24]): 0.000788 s⁻¹
kon (rhesus serum albumin [24]): 8640 M⁻¹ s⁻¹
Kd (mouse serum albumin [25]): 114 nM
koff (mouse serum albumin [25]): 0.00152 s⁻¹
kon (mouse serum albumin [25]): 13400 M⁻¹ s⁻¹
Kd (human serum albumin [26]): 35.2 nM
koff (human serum albumin [26]): 0.000478 s⁻¹
kon (human serum albumin [26]): 13600 M⁻¹ s⁻¹
EC50 (rhesus serum albumin [7]): 40.1 nM
EC50 (mouse serum albumin [8]): 4.2 nM
EC50 (human serum albumin [9]): 67.3 nM
Kd (rhesus serum albumin [27]): 64.9 nM
koff (rhesus serum albumin [27]): 0.000332 s⁻¹
kon (rhesus serum albumin [27]): 5110 M⁻¹ s⁻¹
Kd (mouse serum albumin [28]): 21.8 nM
koff (mouse serum albumin [28]): 0.00033 s⁻¹
kon (mouse serum albumin [28]): 15200 M⁻¹ s⁻¹
Kd (human serum albumin [29]): 61.4 nM
koff (human serum albumin [29]): 0.000292 s⁻¹
kon (human serum albumin [29]): 4760 M⁻¹ s⁻¹
Kd (rhesus serum albumin [30]): 65.4 nM
koff (rhesus serum albumin [30]): 0.000408 s⁻¹
kon (rhesus serum albumin [30]): 6240 M⁻¹ s⁻¹
Kd (mouse serum albumin [31]): 26.1 nM
koff (mouse serum albumin [31]): 0.000362 s⁻¹
kon (mouse serum albumin [31]): 14100 M⁻¹ s⁻¹
Kd (human serum albumin [32]): 64.9 nM
koff (human serum albumin [32]): 0.000383 s⁻¹
kon (human serum albumin [32]): 5910 M⁻¹ s⁻¹
IC50 (human PCSK9 [13]): 5.68 nM
Kd (human PCSK9 [14]): 1 nM
koff (human PCSK9 [14]): 0.000209 s⁻¹
kon (human PCSK9 [14]): 207000 M⁻¹ s⁻¹
IC50 (human PCSK9 [15]): 1.6 nM
Kd (rhesus serum albumin [16]): 71.9 nM
koff (rhesus serum albumin [16]): 0.000415 s⁻¹
kon (rhesus serum albumin [16]): 5770 M⁻¹ s⁻¹
Kd (mouse serum albumin [17]): 20 nM
koff (mouse serum albumin [17]): 0.0003 s⁻¹
kon (mouse serum albumin [17]): 15000 M⁻¹ s⁻¹
Kd (human serum albumin [18]): 68.4 nM
koff (human serum albumin [18]): 0.000362 s⁻¹
kon (human serum albumin [18]): 5300 M⁻¹ s⁻¹
IC50 (human PCSK9 [19]): 7.67 nM
Kd (human PCSK9 [20]): 0.724 nM
koff (human PCSK9 [20]): 0.0002 s⁻¹
kon (human PCSK9 [20]): 281000 M⁻¹ s⁻¹
B8: PCSK9-PKE2 tandem 4472_E06 (designed binder)
PCSK9 domain: MGVSDVPRDLEVVAATPTSLLISWDAPAEGYGYYRITYGETGGNSPVQEFTVPVSKGTATISGLKPGVDYTITVYAVEFDFPGAGYYHRPISINYRTE
PKE2 domain: GVSDVPRDLEVVAATPTSLLISWDAPAVTVRYYRITYGREVQKYSDLGPLYIYQEFTVPGSKSTATISGLKPGVDYTITVYAVTGSGESPASSKPISINYRTEHHHHHH
modifications: The real molecule is ONE polypeptide: PCSK9 domain, undisclosed linker I (a code letter), PKE2 domain. It is given here as two chains because the linker letters are unknown.
notes: also called 4427_E06; not shown: The inter-domain linker

koff (rat serum albumin): 0.000902 s⁻¹
koff (rhesus serum albumin [1]): 0.000313 s⁻¹
koff (mouse serum albumin [2]): 0.000492 s⁻¹
koff (human serum albumin [3]): 0.000253 s⁻¹
B11: 5963_A02.PS5-2 (designed binder)
chain: MGCSTSGVSDVPRDLEVVAATPTSLLISWDAPAVTVRYYRITYGREVQKYSDLGPLYIYQEFTVPGSKSTATISGLKPGVDYTITVYAVTGSGESPASSKPISINYRTPHHHHHH

The next lines start with the binder.

B1: 5916_E03.PS5-2 (designed binder)
chain: MGVSDVPRDLEVVAATPTSLLISWDAPAVTVRYYRITYGREVQKYSDLGPLYIYQEFTVPGSKSTATISGLKPGVDYTITVYAVTGSGESPASSKPISINYRTPCHHHHHH
koff (rat serum albumin): 0.000786 s⁻¹
koff (rhesus serum albumin [1]): 0.000272 s⁻¹
koff (mouse serum albumin [2]): 0.000452 s⁻¹
koff (human serum albumin [3]): 0.000211 s⁻¹

B2: 5963_D01.PS5-2 (designed binder)
chain: B4 chain with A14C, C28A
koff (rat serum albumin): 0.000858 s⁻¹
koff (rhesus serum albumin [1]): 0.000313 s⁻¹
koff (mouse serum albumin [2]): 0.000499 s⁻¹
koff (human serum albumin [3]): 0.000247 s⁻¹

B3: 5963_E02.PS5-2 (designed binder)
chain: B4 chain with C28A, T65C
koff (rat serum albumin): 0.00076 s⁻¹
koff (rhesus serum albumin [1]): 0.000284 s⁻¹
koff (mouse serum albumin [2]): 0.000461 s⁻¹
koff (human serum albumin [3]): 0.000228 s⁻¹

B7: PCSK9-PKE2 tandem 4472_F08 (designed binder)
PCSK9 domain: B8 PCSK9 domain
PKE2 domain: B8 PKE2 domain
modifications: The real molecule is ONE polypeptide: PCSK9 domain, undisclosed linker F, PKE2 domain. It is given here as two chains because the linker letters are unknown.
notes: not shown: The inter-domain linker
Kd (rhesus serum albumin [4]): 71.7 nM
koff (rhesus serum albumin [4]): 0.000346 s⁻¹
kon (rhesus serum albumin [4]): 4820 M⁻¹ s⁻¹
Kd (mouse serum albumin [5]): 26.3 nM
koff (mouse serum albumin [5]): 0.000359 s⁻¹
kon (mouse serum albumin [5]): 13700 M⁻¹ s⁻¹
Kd (human serum albumin [6]): 83.8 nM
koff (human serum albumin [6]): 0.000301 s⁻¹
kon (human serum albumin [6]): 3590 M⁻¹ s⁻¹
EC50 (rhesus serum albumin [7]): 35.2 nM
EC50 (mouse serum albumin [8]): 7.3 nM
EC50 (human serum albumin [9]): 55.4 nM
Kd (rhesus serum albumin [10]): 75.4 nM
koff (rhesus serum albumin [10]): 0.000405 s⁻¹
kon (rhesus serum albumin [10]): 5380 M⁻¹ s⁻¹
Kd (mouse serum albumin [11]): 35 nM
koff (mouse serum albumin [11]): 0.000407 s⁻¹
kon (mouse serum albumin [11]): 11600 M⁻¹ s⁻¹
Kd (human serum albumin [12]): 83.9 nM
koff (human serum albumin [12]): 0.000387 s⁻¹
kon (human serum albumin [12]): 4610 M⁻¹ s⁻¹
IC50 (human PCSK9 [13]): 5.88 nM
Kd (human PCSK9 [14]): 0.902 nM
koff (human PCSK9 [14]): 0.000148 s⁻¹
kon (human PCSK9 [14]): 161000 M⁻¹ s⁻¹
IC50 (human PCSK9 [15]): 2.5 nM
Kd (rhesus serum albumin [16]): 68.7 nM
koff (rhesus serum albumin [16]): 0.000367 s⁻¹
kon (rhesus serum albumin [16]): 5340 M⁻¹ s⁻¹
Kd (mouse serum albumin [17]): 25.5 nM
koff (mouse serum albumin [17]): 0.000344 s⁻¹
kon (mouse serum albumin [17]): 13500 M⁻¹ s⁻¹
Kd (human serum albumin [18]): 67.1 nM
koff (human serum albumin [18]): 0.000324 s⁻¹
kon (human serum albumin [18]): 4820 M⁻¹ s⁻¹
IC50 (human PCSK9 [19]): 7.88 nM
Kd (human PCSK9 [20]): 0.404 nM
koff (human PCSK9 [20]): 0.000118 s⁻¹
kon (human PCSK9 [20]): 289000 M⁻¹ s⁻¹
Kd (rhesus serum albumin [21]): 110 nM
koff (rhesus serum albumin [21]): 0.000818 s⁻¹
kon (rhesus serum albumin [21]): 7400 M⁻¹ s⁻¹
Kd (mouse serum albumin [22]): 137 nM
koff (mouse serum albumin [22]): 0.0015 s⁻¹
kon (mouse serum albumin [22]): 11000 M⁻¹ s⁻¹
Kd (human serum albumin [23]): 43.9 nM
koff (human serum albumin [23]): 0.000489 s⁻¹
kon (human serum albumin [23]): 11100 M⁻¹ s⁻¹

B9: PCSK9-PKE2 tandem 4472_D06 (designed binder)
PCSK9 domain: B8 PCSK9 domain
PKE2 domain: B8 PKE2 domain
notes: not shown: The inter-domain linker; In the real molecule the two parts below are one polypeptide joined by this linker
EC50 (rhesus serum albumin [7]): 93.1 nM
EC50 (mouse serum albumin [8]): 15.6 nM
EC50 (human serum albumin [9]): 139 nM
IC50 (human PCSK9 [13]): 6.51 nM
IC50 (human PCSK9 [15]): 1.8 nM
IC50 (human PCSK9 [19]): 8.12 nM

B10: PCSK9-PKE2 tandem 4472_A04 (designed binder)
PCSK9 domain: B8 PCSK9 domain
PKE2 domain: B8 PKE2 domain
notes: as for B9
EC50 (rhesus serum albumin [7]): 84 nM
EC50 (mouse serum albumin [8]): 16.7 nM
EC50 (human serum albumin [9]): 144 nM
IC50 (human PCSK9 [13]): 4.44 nM
IC50 (human PCSK9 [15]): 1.1 nM
IC50 (human PCSK9 [19]): 5.14 nM
